Residue numbers refer to the chain shown, from its start. Numbers in names are those of the source.

The results in this text go back to paper PMC10786891, “Massively parallel profiling of RNA-targeting CRISPR-Cas13d”.

T1: EsCas13d, nuclease-dead (Eubacterium siraeum, UniProt B0MS50, R295A;H300A;R849A;H854A)
T1 sequence: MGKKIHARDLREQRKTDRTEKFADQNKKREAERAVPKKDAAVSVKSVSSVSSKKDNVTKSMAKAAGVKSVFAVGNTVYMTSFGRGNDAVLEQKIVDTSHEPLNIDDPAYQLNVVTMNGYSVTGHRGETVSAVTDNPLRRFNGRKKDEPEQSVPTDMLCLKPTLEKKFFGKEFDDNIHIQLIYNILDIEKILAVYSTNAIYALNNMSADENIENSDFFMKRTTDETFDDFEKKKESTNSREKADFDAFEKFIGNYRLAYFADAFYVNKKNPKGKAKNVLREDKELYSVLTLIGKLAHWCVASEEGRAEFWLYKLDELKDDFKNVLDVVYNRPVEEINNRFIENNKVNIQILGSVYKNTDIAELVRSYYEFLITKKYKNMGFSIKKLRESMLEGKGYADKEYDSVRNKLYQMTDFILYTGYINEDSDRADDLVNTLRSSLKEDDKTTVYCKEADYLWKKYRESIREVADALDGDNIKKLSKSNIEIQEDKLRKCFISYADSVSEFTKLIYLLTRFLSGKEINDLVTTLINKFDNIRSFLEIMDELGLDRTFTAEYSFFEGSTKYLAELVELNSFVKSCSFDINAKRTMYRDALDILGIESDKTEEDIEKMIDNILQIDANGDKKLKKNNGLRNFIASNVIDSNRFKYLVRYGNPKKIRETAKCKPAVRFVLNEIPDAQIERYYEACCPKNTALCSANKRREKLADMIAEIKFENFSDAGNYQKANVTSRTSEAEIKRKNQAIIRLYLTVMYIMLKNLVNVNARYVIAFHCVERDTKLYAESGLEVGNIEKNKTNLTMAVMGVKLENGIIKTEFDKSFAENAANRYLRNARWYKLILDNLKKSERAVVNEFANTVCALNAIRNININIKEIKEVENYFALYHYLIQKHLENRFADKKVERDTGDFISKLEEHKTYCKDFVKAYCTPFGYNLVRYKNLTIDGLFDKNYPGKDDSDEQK

B1: target 3 insU 3' of 6,insA 3' of 4 (mixed)
RNA 1: CACCCGUGCAAAAUUGCAGGGGUCUAAAACGACCUGAAUAUUUCAGAUCAAA
RNA 2: GGGAAUGGAUCCACAUCUACGAAUUCGUUUUUGAUCUGAAAUAUUCUAGAGUCUGCAGAUCGGAAGAGCACACGU
B2: target 3 insA 3' of 19,insU 3' of 1 (mixed)
RNA 1: B1 RNA 1
RNA 2: GGGAAUGGAUCCACAUCUACGAAUUCGUUUUUGAAUCUGAAAUAUUCAGGUCUUGCAGAUCGGAAGAGCACACGU
B3: target 3 G4C,U22C (mixed)
RNA 1: B1 RNA 1
RNA 2: GGGAAUGGAUCCACAUCUACGAAUUCGUUCUUGAUCUGAAAUAUUCACGUCUGCAGAUCGGAAGAGCACACGU
B4: target 3 insC 3' of 8,insU 3' of 4 (mixed)
RNA 1: B1 RNA 1
RNA 2: B1 RNA 2 with U45C, C46U, U47C, A50U
B5: target 3 insA 3' of 3,insU 3' of 3 (mixed)
RNA 1: B1 RNA 1
RNA 2: B1 RNA 2 with U47A, A48G, G51U
B6: target 3 insA 3' of 14,insA 3' of 6 (mixed)
RNA 1: B1 RNA 1
RNA 2: B1 RNA 2 with U42A, A43U, U44A, C46U, U47C, G49A, A50G
B7: target 3 A11G (mixed)
RNA 1: B1 RNA 1
RNA 2: B3 RNA 2 with C30U, A41G, C48G
B8: target 3 complement block 6-8 (mixed)
RNA 1: B1 RNA 1
RNA 2: B3 RNA 2 with C30U, U44A, U45A, C46G, C48G
B9: target 3 A5G,U22A (mixed)
RNA 1: B1 RNA 1
RNA 2: B3 RNA 2 with C30A, A47G, C48G
B10: target 3 G4U,U22A (mixed)
RNA 1: B1 RNA 1
RNA 2: B3 RNA 2 with C30A, C48U
B11: target 3 insU 3' of 22,insG 3' of 8 (mixed)
RNA 1: B1 RNA 1
RNA 2: B2 RNA 2 with G33U, A34G, U46G, C47U, A48C, G49A, U51G, C52U, U53C
B12: target 3 insU 3' of 4,insA 3' of 2 (mixed)
RNA 1: B1 RNA 1
RNA 2: B1 RNA 2 with U47A, A48G, G49U, A50G, G51U, U52A
B13: target 1 insU 3' of 21,insA 3' of 2 (mixed)
RNA 1: CACCCGUGCAAAAAUGCAGGGGUCUAAAACUGAGCGGAUAACCUCUCUAUGG
RNA 2: GGGAAUGGAUCCACAUCUACGAAUUCGUACCUAUAGAGAGGUUAUCCGCUCAACCGAGAUCGGAAGAGCACACGU
B14: target 1 C6A,C7G (mixed)
RNA 1: B13 RNA 1
RNA 2: GGGAAUGGAUCCACAUCUACGAAUUCGUACCAUAGAGAGGUUAUGAGCUCACCGAGAUCGGAAGAGCACACGU

The data set has as its target T1, EsCas13d, nuclease-dead. The experiment in a line: crRNA (strand 1, pre-loaded); Mg2+; 40 mM Tris-HCl pH 7.5, 150 mM NaCl, 6 mM MgCl2, 1 mM DTT, 0.1% Tween-20, 0.2 mg/ml BSA; 25 C; 10 min per concentration, then washed. The conditions noted are these: tags: His6-TwinStrep-SUMO cleaved; N-terminal SNAP kept (SNAP-Surface 488); label: 3' end held by stalled T7 RNA polymerase.
Consider B1, for which the Kd (usually a measure of binding affinity in units of concentration) was found to be 19.4 ± 3.6 nM.

The molecule B2 yielded a Kd of 68 ± 21 nM. B3 yielded a Kd of 13 ± 2.15 nM. The molecule B4 displayed a Kd of 105 ± 42 nM. B5 registered a Kd of 27.9 ± 2.9 nM. The molecule B6 gave a Kd of 90.5 ± 25 nM. For B7, binding was characterised by a dissociation constant (Kd) of 57 ± 11.5 nM. To B8 belongs 102 ± 23.5 nM. In the case of B9, the Kd amounted to 21.6 ± 2.85 nM. Turning to B10, the affinity, expressed as Kd, was 4.45 ± 0.435 nM. B11: binding was characterised by a dissociation constant (Kd) of 50.5 ± 11.5 nM. In the case of B12, the Kd was found to be 4.65 ± 0.75 nM.

The molecule B13 yielded a Kd of 26.8 ± 2.8 nM. In turn, B14 registered a Kd of 6.86 ± 0.18 nM.
